Assay results from paper PMC3229523, “Identification of Lactoferricin B Intracellular Targets Using an Escherichia coli Proteome Chip” (PLoS ONE, 2011).
Ends that are not written are not given here. * marks the point of attachment. Biotin = O=C1N[C@H]2[C@H](CS[C@H]2CCCCC(=O)*)N1

Experiments:
Assay in all cases: peptide or protein array; E. coli proteome chip: purified His-tagged proteins printed in duplicate on Fullmoon slides, blocked with 1% BSA; 10 nM N-terminal biotinylated LfcinB with 1% BSA, room temperature, 1 h; detected with DyLight 649-labeled streptavidin, ratio to DyLight 549-labeled anti-His antibody; ProCAT normalisation, local cut-off; triplicate chips
Conditions in all cases: both partners purified
[1] = target: T1, YbgE (E. coli K-12, UniProt P0AAV0 1-97)
T1 construct: YbgE, E. coli K-12
T1 sequence (looked up): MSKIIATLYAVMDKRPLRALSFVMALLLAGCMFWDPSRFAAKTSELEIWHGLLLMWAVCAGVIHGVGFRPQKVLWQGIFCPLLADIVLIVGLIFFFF

[2] = target: T2, ThiF (E. coli K-12, UniProt P30138 1-251)
T2 construct: ThiF, E. coli K-12
T2 sequence (looked up): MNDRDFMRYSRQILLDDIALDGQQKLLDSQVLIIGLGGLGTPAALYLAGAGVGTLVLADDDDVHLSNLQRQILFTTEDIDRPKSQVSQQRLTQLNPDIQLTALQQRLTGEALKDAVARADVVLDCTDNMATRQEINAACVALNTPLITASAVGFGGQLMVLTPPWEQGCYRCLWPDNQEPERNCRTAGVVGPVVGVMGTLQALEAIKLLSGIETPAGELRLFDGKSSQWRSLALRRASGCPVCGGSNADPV

[3] = target: T3, YtfI (E. coli K-12, UniProt P39317 1-312)
T3 construct: YtfI, E. coli K-12
T3 sequence (looked up): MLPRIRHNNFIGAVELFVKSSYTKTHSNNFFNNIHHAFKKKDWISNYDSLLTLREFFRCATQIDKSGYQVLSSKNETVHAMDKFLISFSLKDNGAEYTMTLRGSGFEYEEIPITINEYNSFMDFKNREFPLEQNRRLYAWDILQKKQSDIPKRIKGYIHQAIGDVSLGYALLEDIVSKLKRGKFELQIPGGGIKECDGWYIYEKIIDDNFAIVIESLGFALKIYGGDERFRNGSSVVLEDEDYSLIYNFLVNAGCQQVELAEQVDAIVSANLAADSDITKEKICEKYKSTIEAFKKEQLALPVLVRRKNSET

[4] = target: T4, HemC (E. coli K-12, UniProt P06983 1-313)
T4 construct: HemC, E. coli K-12
T4 sequence (looked up): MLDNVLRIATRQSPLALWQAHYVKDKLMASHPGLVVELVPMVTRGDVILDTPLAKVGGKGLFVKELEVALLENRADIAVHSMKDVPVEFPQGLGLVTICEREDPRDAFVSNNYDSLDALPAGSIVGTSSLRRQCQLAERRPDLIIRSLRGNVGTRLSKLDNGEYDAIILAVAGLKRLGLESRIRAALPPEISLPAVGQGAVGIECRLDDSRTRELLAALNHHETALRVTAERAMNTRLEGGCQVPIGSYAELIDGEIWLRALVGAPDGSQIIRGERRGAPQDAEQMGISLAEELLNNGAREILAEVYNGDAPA

[5] = target: T5, ArgH (E. coli K-12, UniProt P11447 1-457)
T5 construct: ArgH, E. coli K-12
T5 sequence (looked up): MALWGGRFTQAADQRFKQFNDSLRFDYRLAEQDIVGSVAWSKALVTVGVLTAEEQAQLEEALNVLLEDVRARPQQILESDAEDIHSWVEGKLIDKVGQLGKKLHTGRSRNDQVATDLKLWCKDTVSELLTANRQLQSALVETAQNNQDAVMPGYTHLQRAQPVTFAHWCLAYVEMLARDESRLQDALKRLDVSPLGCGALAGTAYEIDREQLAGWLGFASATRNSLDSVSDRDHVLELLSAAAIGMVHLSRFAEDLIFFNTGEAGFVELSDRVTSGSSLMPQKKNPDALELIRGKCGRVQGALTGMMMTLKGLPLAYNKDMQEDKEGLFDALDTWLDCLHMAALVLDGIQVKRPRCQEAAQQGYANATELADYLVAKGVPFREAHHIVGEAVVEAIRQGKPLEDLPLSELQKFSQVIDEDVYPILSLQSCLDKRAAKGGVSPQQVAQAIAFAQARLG

Measured: binding result

B1: N-terminal biotinylated Lactoferricin B (peptide, UniProt P24627 36-60, looked up)
peptide: Biotin-FKCRRWQWRMKKLGAPSITCVRRAF
modifications: ends and bridges not checked
notes: lactoferricin B (LfcinB), cationic antimicrobial peptide of 25 amino acids; also called biotinylated LfcinB; biotin-labeled LfcinB; source: bought: Kelowna Inc
binds: all assays above
